# Results taken from article PMC11407943, “Cdc14 phosphatases use an intramolecular pseudosubstrate motif to stimulate and regulate catalysis” (The Journal of Biological Chemistry, 2024).
# Numbering of substitutions follows the chain as printed. In names and notes the source's numbering stands.
# B1: ScCdc14^1-449 (Saccharomyces cerevisiae S288C) (protein)
# chain: MRRSVYLDNTIEFLRGRVYLGAYDYTPEDTDELVFFTVEDAIFYNSFHLDFGPMNIGHLYRFAVIFHEILNDPENANKAVVFYSSASTRQRANAACMLCCYMILVQAWTPHQVLQPLAQVDPPFMPFRDAGYSNADFEITIQDVVYGVWRAKEKGLIDLHSFNLESYEKYEHVEFGDFNVLTPDFIAFASPQEDHPKGYLATKSSHLNQPFKSVLNFFANNNVQLVVRLNSHLYNKKHFEDIGIQHLDLIFEDGTCPDLSIVKNFVGAAETIIKRGGKIAVHCKAGLGRTGCLIGAHLIYTYGFTANECIGFLRFIRPGMVVGPQQHWLYLHQNDFREWKYTTRISLKPSEAIGGLYPLISLEEYRLQKKKLKDDKRVAQNNIEGELRDLTMTPPSNGHGALSARNSSQPSTANNGSNSFKSSAVPQTSPGQPRKGQNGSNTIEDINNN
# B2: ScCdc14^S429E (Saccharomyces cerevisiae S288C; S429E) (protein)
# chain: B1 chain with S429E
# B3: hCdc14B^1-411 (Homo sapiens) (protein)
# chain: DRLCFAILYSRPKSASNVHYFSIDNELEYENFYADFGPLNLAMVYRYCCKINKKLKSITMLRKKIVHFTGSDQRKQANAAFLVGCYMVIYLGRTPEEAYRILIFGETSYIPFRDAAYGSCNFYITLLDCFHAVKKAMQYGFLNFNSFNLDEYEHYEKAENGDLNWIIPDRFIAFCGPHSRARLESGYHQHSPETYIQYFKNHNVTTIIRLNKRMYDAKRFTDAGFDHHDLFFADGSTPTDAIVKEFLDICENAEGAIAVHCKAGLGRTGTLIACYIMKHYRMTAAETIAWVRICRPGSVIGPQQQFLVMKQTNLWLEGDYFRQKLKGQENGQHRAAFSKLLSGVDDISINGVENQDQQEPEPYSDDDEINGVTQGDRLRALKSRRQSKTNAIPLT
# notes: codons 1-411; N-terminal GST; expressed in E. coli
# B4: ScCdc14^1-374 (Saccharomyces cerevisiae S288C) (protein)
# chain: MRRSVYLDNTIEFLRGRVYLGAYDYTPEDTDELVFFTVEDAIFYNSFHLDFGPMNIGHLYRFAVIFHEILNDPENANKAVVFYSSASTRQRANAACMLCCYMILVQAWTPHQVLQPLAQVDPPFMPFRDAGYSNADFEITIQDVVYGVWRAKEKGLIDLHSFNLESYEKYEHVEFGDFNVLTPDFIAFASPQEDHPKGYLATKSSHLNQPFKSVLNFFANNNVQLVVRLNSHLYNKKHFEDIGIQHLDLIFEDGTCPDLSIVKNFVGAAETIIKRGGKIAVHCKAGLGRTGCLIGAHLIYTYGFTANECIGFLRFIRPGMVVGPQQHWLYLHQNDFREWKYTTRISLKPSEAIGGLYPLISLEEYRLQKKKLKD
# B5: ScCdc14^P433A/K435A (Saccharomyces cerevisiae S288C; K435A/P433A) (protein)
# chain: B1 chain with P433A, K435A
# B6: ScCdc14^Q432N (Saccharomyces cerevisiae S288C; Q432N) (protein)
# chain: B1 chain with Q432N
# B7: ScCdc14^Q432E (Saccharomyces cerevisiae S288C; Q432E) (protein)
# chain: B1 chain with Q432E
# B8: ScCdc14^Q432A (Saccharomyces cerevisiae S288C; Q432A) (protein)
# chain: B1 chain with Q432A
# B9: hCdc14B^Q390A (Homo sapiens; Q390A) (protein)
# chain: MSREGAGAALVAEVIKDRLCFAILYSRPKSASNVHYFSIDNELEYENFYADFGPLNLAMVYRYCCKINKKLKSITMLRKKIVHFTGSDQRKQANAAFLVGCYMVIYLGRTPEEAYRILIFGETSYIPFRDAAYGSCNFYITLLDCFHAVKKAMQYGFLNFNSFNLDEYEHYEKAENGDLNWIIPDRFIAFCGPHSRARLESGYHQHSPETYIQYFKNHNVTTIIRLNKRMYDAKRFTDAGFDHHDLFFADGSTPTDAIVKEFLDICENAEGAIAVHCKAGLGRTGTLIACYIMKHYRMTAAETIAWVRICRPGSVIGPQQQFLVMKQTNLWLEGDYFRQKLKGQENGQHRAAFSKLLSGVDDISINGVENQDQQEPEPYSDDDEINGVTAGDRLRALKSRRQSKTNAIPLT
# notes: as for B3
# Substrate: Cc1cc(=O)oc2c(F)c(OP(=O)(O)O)c(F)cc12
# Assay: purified protein, by the assay type
# Conditions: pH 7.5; 30.0 °C
# Experimental: Data from velocity versus substrate concentration plots were fit with the Michaelis–Menten equation in GraphPad Prism (https://www.graphpad.com/) to determine steady-state kinetic parameters kcat and KM. For trans peptide stimulation assays, DiFMUP was used at a single concentration well above the measured KM for each enzyme. […] (where pS is phosphoSer), were assayed in Cdc14 reaction buffer with Biomol Green (Enzo Life Science) detection of released inorganic phosphate as previously described ([29]). Data were fit with a modified Michaelis–Menten equation including a substrate inhibition term in Prism.
# After removing the Cdk1-bound affinity resin, we measured effects on Cdc14 steady-state kinetic parameters with DiFMUP.
# Values are means of at least six independent measurements and error bars are SDs.
row,Protein,Km
1,B1,25 µM
2,B2,3.3 µM

# Substrate: Cc1cc(=O)oc2c(F)c(OP(=O)(O)O)c(F)cc12
# Assay: not given
# Assay type: biochemical
# Conditions: pH 7.5; 30.0 °C
# From the text: Enzym e kcat (sec-1) KM (µM)
row,Protein,Km
1,B3,46 µM
2,B4,0.76 µM
3,B1,8.4 µM
4,B5,1.0 µM
5,B6,0.92 µM
6,B7,1.11 µM
7,B8,0.72 µM
8,B9,2.88 µM
